Data as given in publication PMC2275104 (Nucleic Acids Research, 2008).
Numbering of substitutions follows the chain as printed.

T1: MCM P193G (Methanothermobacter thermautotrophicus, UniProt O27798 1-666, P193G)
T1 sequence: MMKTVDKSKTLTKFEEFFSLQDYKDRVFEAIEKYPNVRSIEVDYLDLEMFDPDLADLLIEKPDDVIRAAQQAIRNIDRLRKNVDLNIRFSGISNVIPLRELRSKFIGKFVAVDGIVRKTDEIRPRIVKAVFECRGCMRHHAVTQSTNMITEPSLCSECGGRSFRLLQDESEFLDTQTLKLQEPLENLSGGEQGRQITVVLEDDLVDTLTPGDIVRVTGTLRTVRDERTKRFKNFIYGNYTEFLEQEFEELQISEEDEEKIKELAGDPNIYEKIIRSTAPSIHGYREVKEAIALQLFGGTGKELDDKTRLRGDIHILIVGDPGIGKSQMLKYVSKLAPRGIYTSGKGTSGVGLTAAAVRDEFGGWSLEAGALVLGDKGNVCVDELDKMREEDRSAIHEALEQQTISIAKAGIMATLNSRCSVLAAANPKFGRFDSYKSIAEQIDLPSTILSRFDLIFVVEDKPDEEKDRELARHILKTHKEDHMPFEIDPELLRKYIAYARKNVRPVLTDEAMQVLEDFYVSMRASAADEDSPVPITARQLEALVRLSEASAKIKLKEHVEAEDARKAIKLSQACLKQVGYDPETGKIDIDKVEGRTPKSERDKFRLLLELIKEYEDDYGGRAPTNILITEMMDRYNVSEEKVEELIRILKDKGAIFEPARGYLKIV

T2: MCM E182R (Methanothermobacter thermautotrophicus, UniProt O27798 1-666, E182R)
T2 sequence: T1 sequence with E182R, G193P

T3: MCM beta-finger mutant (Methanothermobacter thermautotrophicus, UniProt O27798 1-666, R227A;K229A)
T3 sequence: T1 sequence with G193P, R227A, K229A


What was measured:
[1] = target: M. thermautotrophicus MCM (MTH1770) (Methanothermobacter thermautotrophicus, UniProt O27798); conditions: labelled compound; Hepes-NaOH pH 7.5, 5 mM MgCl2, 60°C
[2] = target: T1, MCM P193G; assay: fluorescence anisotropy
[3] = target: T2, MCM E182R; assay: fluorescence anisotropy
[4] = target: T3, MCM beta-finger mutant; assay: fluorescence anisotropy

Chain of M. thermautotrophicus MCM (MTH1770) (O27798 1-666): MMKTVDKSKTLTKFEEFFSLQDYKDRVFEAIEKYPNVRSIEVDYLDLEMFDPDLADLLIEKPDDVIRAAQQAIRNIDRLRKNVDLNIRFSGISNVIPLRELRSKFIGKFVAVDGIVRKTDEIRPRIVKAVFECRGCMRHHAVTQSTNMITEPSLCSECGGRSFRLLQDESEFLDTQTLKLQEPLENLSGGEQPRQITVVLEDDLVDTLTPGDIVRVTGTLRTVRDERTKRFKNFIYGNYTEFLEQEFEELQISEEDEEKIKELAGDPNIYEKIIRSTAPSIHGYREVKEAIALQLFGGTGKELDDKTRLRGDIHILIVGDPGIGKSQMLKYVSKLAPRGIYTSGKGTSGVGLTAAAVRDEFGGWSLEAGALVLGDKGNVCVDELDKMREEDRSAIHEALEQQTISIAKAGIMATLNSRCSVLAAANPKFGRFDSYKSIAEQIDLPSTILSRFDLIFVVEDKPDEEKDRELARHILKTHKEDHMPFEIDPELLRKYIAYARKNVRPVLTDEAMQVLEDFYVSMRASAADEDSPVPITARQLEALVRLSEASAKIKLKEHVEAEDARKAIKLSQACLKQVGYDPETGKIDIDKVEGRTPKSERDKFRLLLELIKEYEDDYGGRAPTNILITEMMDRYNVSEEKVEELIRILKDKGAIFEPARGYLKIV

| Molecule | % ATP cross-linked relative to wild type [1] | binding result [2] | binding result [3] | binding result [4] |
| --- | --- | --- | --- | --- |
| Nc1ncnc2c1ncn2[C@@H]1O[C@H](COP(=O)(O)OP(=O)(O)OP(=O)(O)O)[C@@H](O)[C@H]1O [ATP] | UV crosslinking of ATP to the various MCM proteins was performed | – | – | – |
| CGCAGATAACAGTTGTCCTGGAGAACGACCTGGTTGACACCCTCACACCC (ssDNA) [50-mer Cy3-ssDNA] | – | binds | binds | no binding |
